Read-outs that look alike come from different tables or passages of the source. Blank lines part the entries; values can stand above or below the binder they belong to.
Tests used:
Test in all cases: scFv on yeast, soluble CXCL-SA; flow cytometry
[1] = biological target: these chemokines (the six ELR+ CXC chemokines recognized by CK138)
[2] = biological target: T1, ^NhCXCL1-SA^C (Groα/hCXCL1 35-107 fused to mouse serum albumin) (human; mouse, UniProt P09341 35-107; P07724 25-608)
T1 construct: soluble form; also called Groa
Procedure: (§1) In brief, DNA plasmids encoding single protein binder clones were transformed into genetically modified Saccharomyces cerevisiae yeast cells (EBY100 strain) using Frozen-EZ Yeast Transformation II Kit (Zymo Research) and plated on selective SD-CAA solid agar media. Individual colonies were inoculated in 5 mL SD-SCAA cultures, grown to mid-log phase (0D600=2-5) in SD-CAA media at 30° C. with shacking (250 rpm). Cells were induced in galactose-containing SG-CAA media for 20 hours at 20° C. with shacking (250 rpm) as previously described (Angelini, A. et al. Protein Engineering and Selection Using Yeast Surface Display. Methods Mol Biol 1319, 3-36 (2015)). The binding assays were conducted in 96-well plates (Corning) containing 1×10⁴ induced cells per well. […] Yeast cells displaying protein binders were incubated with varying concentration of soluble CXC chemokine fusions (^NCXCL-SA^S) bearing the His6 tag and the primary chicken anti-c-myc epitope tag (1:1000) antibody (Gallus Immunotech) overnight at 4° C. with shaking (150 rpm). […] After primary incubation, cells were pelleted (2500× g for 5 min at 4° C.) and washed twice with 200 μL ice-cold PBSA buffer. Secondary labeling was performed with goat anti-chicken and mouse anti-His6 epitope tag antibodies conjugated to Alexa Fluor dyes at recommended dilutions.

[3] = biological target: T2, ^NhCXCL5-SA^C (ENA-78/hCXCL5 44-114 fused to mouse serum albumin) (human; mouse, UniProt P42830 44-114; P07724 25-608)
T2 construct: soluble form
Procedure: as §1

[4] = biological target: T3, ^NhCXCL8-SA^C (IL-8/hCXCL8 28-99 fused to mouse serum albumin) (human; mouse, UniProt P10145 28-99; P07724 25-608)
T3 construct: soluble form
Procedure: as §1

[5] = biological target: T4, ^NmCXCL1-SA^C (KC/mCXCL1 25-96 fused to mouse serum albumin) (mouse, UniProt P12850 25-96; P07724 25-608)
T4 construct: soluble form
Procedure: as §1

[6] = biological target: T5, ^NmCXCL2-SA^C (MIP-2/mCXCL2 28-100 fused to mouse serum albumin) (mouse, UniProt P10889 28-100; P07724 25-608)
T5 construct: soluble form
Procedure: as §1

[7] = biological target: T6, ^NmCXCL5-SA^C (LIX/mCXCL5 48-118 fused to mouse serum albumin) (mouse, UniProt P50228 48-118; P07724 25-608)
T6 construct: soluble form
Procedure: as §1

[8] = biological target: T1, ^NhCXCL1-SA^C (Groα/hCXCL1 35-107 fused …); remark: listed apart in the source
Procedure: as §1

[9] = biological target: T7, ^NhCXCL2-SA^C (Groβ/hCXCL2 35-107 fused to mouse serum albumin) (human; mouse, UniProt P19875 35-107; P07724 25-608)
T7 construct: soluble form
Procedure: as §1

[10] = biological target: T8, ^NhCXCL3-SA^C (Groγ/hCXCL3 35-107 fused to mouse serum albumin) (human; mouse, UniProt P19876 35-107; P07724 25-608)
T8 construct: soluble form
Procedure: as §1

[11] = biological target: T9, ^NhCXCL4-SA^C (PF-4/hCXCL4 32-101 fused to mouse serum albumin) (human; mouse, UniProt P02776 32-101; P07724 25-608)
T9 construct: soluble form
Procedure: as §1

[12] = biological target: T2, ^NhCXCL5-SA^C (ENA-78/hCXCL5 44-114 …); remark: listed apart in the source
Procedure: as §1

[13] = biological target: T10, ^NhCXCL6-SA^C (GCP-2/hCXCL6 43-114 fused to mouse serum albumin) (human; mouse, UniProt P80162 43-114; P07724 25-608)
T10 construct: soluble form
Procedure: as §1

[14] = biological target: T3, ^NhCXCL8-SA^C (IL-8/hCXCL8 28-99 fused …); remark: listed apart in the source
Procedure: as §1

[15] = biological target: T4, ^NmCXCL1-SA^C (KC/mCXCL1 25-96 fused to …); remark: listed apart in the source
Procedure: as §1

[16] = biological target: T5, ^NmCXCL2-SA^C (MIP-2/mCXCL2 28-100 …); remark: listed apart in the source
Procedure: as §1

[17] = biological target: T11, ^NmCXCL3-SA^C (DCIP-1/mCXCL3 28-100 fused to mouse serum albumin) (mouse, UniProt Q6W5C0 28-100; P07724 25-608)
T11 construct: soluble form
Procedure: as §1

[18] = biological target: T6, ^NmCXCL5-SA^C (LIX/mCXCL5 48-118 fused …); remark: listed apart in the source
Procedure: as §1

[19] = biological target: T12, ^NmCXCL10-SA^C (Ip-10/mCXCL10 22-98 fused to mouse serum albumin) (mouse, UniProt P17515 22-98; P07724 25-608)
T12 construct: soluble form
Procedure: as §1

five targets (of CK157) = biological target: five targets (of CK157)
[20] = biological target: T13, ^NhCXCL10-SA^C (IP-10/hCXCL10 22-98 fused to mouse serum albumin) (human; mouse, UniProt P02778 22-98; P07724 25-608)
T13 construct: soluble form
Procedure: as §1

[21] = biological target: T14, ^NhCXCL11-SA^C (I-TAC/hCXCL11 22-94 fused to mouse serum albumin) (human; mouse, UniProt O14625 22-94; P07724 25-608)
T14 construct: soluble form
Procedure: as §1

[22] = biological target: T15, ^NmCXCL4-SA^C (Pf-4/mCXCL4 30-105 fused to mouse serum albumin) (mouse, UniProt Q9Z126 30-105; P07724 25-608)
T15 construct: soluble form
Procedure: as §1

[23] = biological target: T16, ^NmCXCL7-SA^C (Nap-2/mCXCL7 48-113 fused to mouse serum albumin) (mouse)
T16 construct: soluble form
T16 chain: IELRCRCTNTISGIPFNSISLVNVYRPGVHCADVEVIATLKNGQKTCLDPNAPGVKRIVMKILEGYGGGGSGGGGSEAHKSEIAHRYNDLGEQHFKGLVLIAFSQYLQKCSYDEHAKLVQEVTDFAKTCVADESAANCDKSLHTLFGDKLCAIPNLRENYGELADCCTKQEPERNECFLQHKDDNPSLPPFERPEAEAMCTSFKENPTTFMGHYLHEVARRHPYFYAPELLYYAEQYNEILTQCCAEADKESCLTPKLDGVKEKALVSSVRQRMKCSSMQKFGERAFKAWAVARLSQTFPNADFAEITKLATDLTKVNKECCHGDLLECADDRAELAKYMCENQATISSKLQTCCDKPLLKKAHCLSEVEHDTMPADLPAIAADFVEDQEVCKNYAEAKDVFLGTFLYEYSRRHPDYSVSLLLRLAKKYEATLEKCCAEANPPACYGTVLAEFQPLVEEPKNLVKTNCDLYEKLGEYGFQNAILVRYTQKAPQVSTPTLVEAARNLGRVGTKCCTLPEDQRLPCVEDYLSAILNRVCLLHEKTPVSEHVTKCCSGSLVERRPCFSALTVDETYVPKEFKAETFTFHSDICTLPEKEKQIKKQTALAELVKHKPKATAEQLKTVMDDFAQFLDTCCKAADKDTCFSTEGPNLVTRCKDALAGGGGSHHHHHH
Procedure: as §1

[24] = biological target: T17, ^NmCXCL11-SA^C (I-Tac/mCXCL11 22-100 fused to mouse serum albumin) (mouse, UniProt Q9JHH5 22-100; P07724 25-608)
T17 construct: soluble form
Procedure: as §1

- fold improvement in affinity relative to the parental CK1 [1]: 30 to 340 fold
- Kd [2]: 61.9 nM
- Kd [3]: 5.8 nM
- Kd [4]: 7.4 nM
- Kd [5]: 34.8 nM
- Kd [6]: 36.2 nM
- Kd [7]: 193 nM
- Kd [8]: 41.5 nM
- Kd [9]: 267 nM
- Kd [10]: 349 nM
- Kd [11]: 167 nM
- Kd [12]: 5.8 nM
- Kd [13]: 153 nM
- Kd [14]: 6.9 nM
- Kd [15]: 35.7 nM
- Kd [16]: 29.1 nM
- Kd [17]: 10.9 nM
- Kd [18]: 176 nM
- Kd [19]: 500 nM
B1: CK138 (scFv)
scFv: AIQMTRSPSSLSASVGDRVTITCRASQYHDGSAAWYQQKPGKAPKLLIYGASYLYSGVPSRFSGSRSGTDFTLTISSLQPEDFATYYCQQSSYSLITFGQGTKVEIKGTTAASGSSGGSSSGAEVQLVESDGGLVQPGGSLRLSCAASGFNLSYYGMHWVRQAPGKGLEWVAYIASYPGYTSYADSVKGRFTISADTSKNTAYLQMNSLRAEDTAVYYCARSGYSYSPYYSWFSAGMNYWGQGALVTVSS
notes: CK1 lineage

- fold improvement in affinity compared to the initial CK2 (five targets (of CK157)): 20 to 55 fold
- Kd [2]: 36.2 nM
- Kd [3]: 16.9 nM
- Kd [5]: 20.6 nM
- Kd [6]: 18.2 nM
- Kd [7]: 57.1 nM
- Kd [8]: 61.1 nM
- Kd [9]: 57.9 nM
- Kd [10]: 53.9 nM
- Kd [11]: 112 nM
- Kd [12]: 26.3 nM
- Kd [13]: 46.6 nM
- Kd [20]: 45.5 nM
- Kd [21]: 131 nM
- Kd [15]: 24.3 nM
- Kd [16]: 19.9 nM
- Kd [17]: 17.4 nM
- Kd [22]: 17.1 nM
- Kd [18]: 96.9 nM
- Kd [23]: 13.6 nM
- Kd [19]: 44.4 nM
- Kd [24]: 124 nM
B2: CK157 (scFv)
scFv: DIQMTQSPSSLSASVGDRVTITCRASQSYGGVAWYQQKPGKAPKLLIYSASYLYSGVPSRFSGSRSGTDFTLTISSLQPEDFATYYCQQPSHLITFGQGTEVEIKGTTAASGSSGGSSSGAEVQLVESGGGLVQPGGSLRLSCAASGSNPYYYGGTHWVRQAPGEELEWVASIGSYPGYTDYADSVKGRFTISADTSKNTAYLQMNSLRAEDTAVYYCARHYYWYDATDYWGQGTLVTVSS
notes: CK2 lineage

- Kd [2]: 0.79 nM
- fold increase in affinity (against the parental CK4 clone) [2]: 50 fold
- Kd [5]: 0.93 nM
- fold increase in affinity (against the parental CK4 clone) [5]: 800 fold
- Kd [8]: 1 nM
- Kd [9]: 13.9 nM
- Kd [10]: 5.7 nM
- Kd [15]: 1.1 nM
B3: CK129 (scFv)
scFv: DIQMTQSPSPLSASVGDRVTITCRASQYGGYVAWYQQKPGKAPKLLIYGASLLYSGVPSRFSGGRSGTDFTLTISSLQPEDFATYYCQRGHALITFGQGTKVEIEGTTAASGSSGGSSSGAEVQLVESGGGLVQPGGSLRLSCAASGFNISSYGSMHWVRQAPGKGLEWVASIYPYSSSTYYADSVKGRFTISADTSKNTAYLQMNSLRAEDTAVYYCARGYGPWYAYSYFALDYWGQGTLVTVSS
notes: CK4 lineage
